Patent publication US20250154208A1

What was measured:
IgG [1] = assay: SPR, Biacore 4000; IgG amine-coupled to CM5 chip, C domain construct as analyte
IgG [2] = assay: column chromatography, ligand coupled to agarose, IgG loaded at 1 mg/ml, before alkali treatment

For (Native C-domain) 4, the Kd (IgG [1]) was 7.18 nM and the Initial IgG capability (dynamic binding capacity at 10% breakthrough) (IgG [2]) was 165 mg/mL.
